From paper PMC7846742 come the findings set out here.

A value given as a limit tells only on which side of the number the result lay.

The assay addresses His6-OAZ-GSY-SPM-Ctag (human | Neisseria meningitidis serogroup B (strain MC58)) (UniProt Q9JYV5). As to the kind of experiment: cross-linking; NeissLock: Ca2+-induced aspartic anhydride on OAZ reacts with the docked partner; purified proteins mixed at 10 µM each or as indicated (AZI 2.5 µM each; Fig. 4b 0.5 µM each; 30 µM ODC with 10 µM OAZ-Y-SPM), 37 °C, HBS pH 7.4 with 2 mM TCEP, 10 mM CaCl2 unless varied (pH 6.5-8.5, 0.5-10 mM Ca2+, TBS, lyophilised probe); SDS-PAGE with Coomassie, intact ESI-MS, tryptic LC-MS/MS.

Sequence of His6-AZI-Ctag (human Antizyme Inhibitor) (O14977 whole entry): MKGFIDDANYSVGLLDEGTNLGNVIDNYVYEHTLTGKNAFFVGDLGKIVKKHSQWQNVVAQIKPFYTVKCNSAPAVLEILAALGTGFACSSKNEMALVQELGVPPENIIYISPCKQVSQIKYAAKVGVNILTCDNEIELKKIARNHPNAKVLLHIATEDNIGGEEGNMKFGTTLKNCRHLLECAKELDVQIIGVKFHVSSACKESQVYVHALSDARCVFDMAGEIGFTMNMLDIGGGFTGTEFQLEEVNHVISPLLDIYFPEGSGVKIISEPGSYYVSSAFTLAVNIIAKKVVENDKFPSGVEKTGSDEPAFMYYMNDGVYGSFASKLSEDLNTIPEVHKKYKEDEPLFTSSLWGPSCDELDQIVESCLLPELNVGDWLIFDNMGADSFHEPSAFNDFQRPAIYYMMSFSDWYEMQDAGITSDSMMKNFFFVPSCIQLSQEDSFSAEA

Turning to “His6-AZI-Ctag (human Antizyme Inhibitor) (from UniProt O14977 1-448) (natural protein)”, the coupling yield was 80% and the percent of AZI conjugated within 10 min is more than 50%.
